Data from US20160145334A1 (AbbVie / Abbott, published 2016).

Tests used:
[1] = biological target: T1, soluble recombinant rat NgR, amino acids 27 through 450, with 6xHis tag (rat); test: not stated
T1 construct: 2a; made in HEK293F cells; also called Rat NgR 6x His; rNgR
T1 chain: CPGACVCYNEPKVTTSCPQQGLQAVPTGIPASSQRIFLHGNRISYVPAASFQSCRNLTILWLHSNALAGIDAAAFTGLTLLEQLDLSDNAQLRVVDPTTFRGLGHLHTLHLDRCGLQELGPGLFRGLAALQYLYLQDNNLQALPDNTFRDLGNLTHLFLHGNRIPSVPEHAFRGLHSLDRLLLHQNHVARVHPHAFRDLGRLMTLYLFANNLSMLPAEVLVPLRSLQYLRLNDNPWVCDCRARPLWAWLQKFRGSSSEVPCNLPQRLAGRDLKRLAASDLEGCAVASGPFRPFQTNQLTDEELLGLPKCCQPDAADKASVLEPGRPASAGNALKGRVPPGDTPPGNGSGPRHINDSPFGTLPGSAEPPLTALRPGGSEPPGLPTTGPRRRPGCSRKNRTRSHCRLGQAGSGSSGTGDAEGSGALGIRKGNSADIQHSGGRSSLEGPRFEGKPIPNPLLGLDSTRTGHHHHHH

[2] = biological target: T1, soluble recombinant rat NgR, amino …; test: ELISA, rat NgR coated 0.2 µg/well
Protocol: (§1) To determine the specificity of the monoclonal antibodies produced in Example 1, an ELISA using NgR-Fc (a fusion protein comprising amino acids Met 1 to Ser 447 of the human NgR and a human Fc fragment (R&D Systems)) and rat NgR (SEQ ID NO. 2a), was performed. Both ligands were immobilized on 96-well microtiter plates (Nunc Maxisorb; 0.2 μg/well). As a blocking reagent 2% bovine serum albumin (BSA) in Tris-HCL, pH 7.2 was used for 2 h at room temperature. The monoclonal antibodies were used in concentrations starting at 10,000 ng/ml. Bound antibodies were detected with a secondary anti-mouse antibody labeled with horseradish peroxidase (Sigma) and developed using 3,3′,5,5′-tetramethylbenzidine substrate (TMB, Pierce) under standard conditions. mAb50 and mAb51 specifically bound to human NgR. […] In similar experiments, mAb50 and mAb51 also specifically bound to a polypeptide consisting of amino acids of the rat NgR.

[3] = biological target: T2, human recombinant NgR/Fc chimera (R&D Systems, Cat. Number 1208-NG) (human, UniProt Q9BZR6 27-447); test: ELISA, human NgR-Fc coated 0.2 µg/well
T2 construct: range 1-447; Bought from R&D Systems; also called hNgR-Fc; human NgR-Fc; not shown: human Fc fragment
T2 sequence (looked up): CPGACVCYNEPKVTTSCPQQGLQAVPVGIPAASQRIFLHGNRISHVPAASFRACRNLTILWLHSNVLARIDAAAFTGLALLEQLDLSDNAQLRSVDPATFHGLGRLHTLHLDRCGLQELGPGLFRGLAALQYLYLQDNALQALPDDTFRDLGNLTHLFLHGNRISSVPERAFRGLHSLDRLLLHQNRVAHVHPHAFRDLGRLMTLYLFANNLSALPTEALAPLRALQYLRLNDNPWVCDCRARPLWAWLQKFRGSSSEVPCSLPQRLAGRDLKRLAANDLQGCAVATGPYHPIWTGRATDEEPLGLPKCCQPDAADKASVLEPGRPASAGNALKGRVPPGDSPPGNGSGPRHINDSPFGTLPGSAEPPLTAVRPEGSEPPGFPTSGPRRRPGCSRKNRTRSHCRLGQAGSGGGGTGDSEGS

[4] = biological target: T2, human recombinant NgR/Fc chimera (R&D …); test: Biacore, antibody captured, hNgR-Fc chimera as antigen
[5] = biological target: T1, soluble recombinant rat NgR, amino …; test: ELISA, rat NgR coated 0.2 µg/well, anti-mouse-HRP, TMB
Protocol: as §1

[6] = biological target: T2, human recombinant NgR/Fc chimera (R&D …); test: ELISA, human NgR-Fc coated 0.2 µg/well, anti-mouse-HRP, TMB
Protocol: as §1

[7] = biological target: T2, human recombinant NgR/Fc chimera (R&D …); test: competition ELISA, human NgR-Fc coated 0.2 µg/well, blocked ligand AP-Nogo66 at 0.15 nM, AttoPhos, RFU (30min-0min)
Protocol: To further characterize the monoclonal antibodies a competition assay similar to the binding assay of Example 2 was used to test the ability of the mAbs produced in Example 1 to inhibit AP-Nogo66 binding to human NgR-Fc. Human NgR-Fc (0.2 μg/well) was immobilized on 96-well microtiter plates (Nunc Maxisorb) in 50 mM Na-carbonate buffer pH 9 over night at 4° C. followed by a 2 h blocking step with 2% BSA in Tris-HCL, pH 7.2 at room temperature. The wells received a constant concentration of AP-Nogo66 (final concentration 0.15 nM in Tris-HCL, pH 7.2 with 0.1% BSA) and increasing concentrations of the mAbs. Plates were incubated for 90 min at room temperature. During each incubation step plates were washed with washing buffer (10 mM Tris-HCl, pH7.2 and 0.05% Tween20). Binding of AP-Nogo66 was detected with the AttoPhos substrate (Roche) and the fluorescence units were measured in the Polarstar (BMG) instrument.

B1: mAb51 (antibody, IgG2a, V domains shown)
VH: QVQLQQPGAELVKPGASVKLSCKASGYTFITYWMHWMKQRPGQGLEWIGEIDPSDSYTDYNQKFKGKATLTVDKSSSTAYMQLSSLTSEDSAVYYCARGSNVLYVLDYWGQGTSVTVSS
VL: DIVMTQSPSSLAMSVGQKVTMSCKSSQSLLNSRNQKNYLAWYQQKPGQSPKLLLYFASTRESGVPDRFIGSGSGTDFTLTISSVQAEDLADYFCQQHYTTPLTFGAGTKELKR
notes: also called Antibody Clone 51; ATCC No. PTA-8384
Binder B1 has an IC50 [1] of roughly 30 pM, an EC50 [2] of less than 0.02 µg/mL and an EC50 [3] of less than 0.02 µg/mL. It also gave a Kd [4] of 108 pM, a koff [4] of 5.88e-05 s⁻¹ and a kon [4] of 544000 M⁻¹ s⁻¹. The “EC50 (read off the curve)” value [5] was roughly 0.03 µg/mL, the “EC50 (read off the curve)” value [6] was roughly 0.006 µg/mL and the “IC50 (read off the curve)” value [7] was roughly 2000 pM.
